# In US20210292422A1 (SURROZEN, published 2021):
# B1: L2:5:αGFP:Fc (bispecific antibody)
# chain: EVQLVESGGGLVQPGGSLRLSCAASGFTFTSYYISWVRQAPGKGLEWVAEISPYSGSTYYADSVKGRFTISADTSKNTAYLQMNSLRAEDTAVYYCALRARPPIRLHPRGSVMDYWGQGTLVTVSSGSAASGSSGGSSSGADIQMTQSPSSLSASVGDRVTITCRASQDVSTAVAWYQQKPGKAPKLLIYSASFLYSGVPSRFSGSGSGTDFTLTISSLQPEDFATYYCQQSYTTPPTFGQGTKVEIKGSGSGQVQLVESGGGLVQPGGSLRLSCAASGFTFSRYGMHWVRQAPGKGLEWVSGISSIGSNTYYADSVKGRFTISRDNSKNTLYLQMNSLRAEDTAVYYCARWYKTYIDVWGQGTLVTVSSGGGGSGGGGSGGGGSDIELTQPPSVSVAPGQTARISCSGDNLGKKYVYWYQQKPGQAPVLVIYGDDERPSGIPERFSGSNSGNTATLTISGTQAEDEADYYCASYDSSHILIVFGGGTKLTVLGSGSGDKTHTCPPCPAPEAAGGPSVFLFPPKPKDTLMISRTPEVTCVVVDVSHEDPEVKFNWYVDGVEVHNAKTKPREEQYNSTYRVVSVLTVLHQDWLNGKEYKCKVSNKALGAPIEKTISKAKGQPREPQVYTLPPSREEMTKNQVSLTCLVKGFYPSDIAVEWESNGQPENNYKTTPPVLDSDGSFFLYSKLTVDKSRWQQGNVFSCSVMHEALHNHYTQKSLSLSPGK
# notes: 0FZD:2LRP control
# B2: L1:5:αGFP:Fc (bispecific antibody)
# chain: DVKLVESGGGLVKLGGSLRLSCAASGFSFSTSYMSWVRQTPEKRLELVAAINLNGGSTYYSDTVKGRFTISRDNAKNTLYLQMSSLKSEDTAFYYCASELAGYGTPFAYWGQGTLVTVSAGSAASGSSGGSSSGADIVLTQSPATLSVTPGDSVSLSCKASQSISYNLHWYQQKSHESPRLLIKYTSQSISGIPSRFSGSGSGTDFTLTINNVETEDFGMYFCQQSNSWPLTFGAGTKLEVKGSGSGQVQLVESGGGLVQPGGSLRLSCAASGFTFSRYGMHWVRQAPGKGLEWVSGISSIGSNTYYADSVKGRFTISRDNSKNTLYLQMNSLRAEDTAVYYCARWYKTYIDVWGQGTLVTVSSGGGGSGGGGSGGGGSDIELTQPPSVSVAPGQTARISCSGDNLGKKYVYWYQQKPGQAPVLVIYGDDERPSGIPERFSGSNSGNTATLTISGTQAEDEADYYCASYDSSHILIVFGGGTKLTVLGSGSGDKTHTCPPCPAPEAAGGPSVFLFPPKPKDTLMISRTPEVTCVVVDVSHEDPEVKFNWYVDGVEVHNAKTKPREEQYNSTYRVVSVLTVLHQDWLNGKEYKCKVSNKALGAPIEKTISKAKGQPREPQVYTLPPSREEMTKNQVSLTCLVKGFYPSDIAVEWESNGQPENNYKTTPPVLDSDGSFFLYSKLTVDKSRWQQGNVFSCSVMHEALHNHYTQKSLSLSPGK
# notes: 0FZD:2LRP control
# B3: L2:5:F3_His (bispecific antibody)
# chain: EVQLVESGGGLVQPGGSLRLSCAASGFTFTSYYISWVRQAPGKGLEWVAEISPYSGSTYYADSVKGRFTISADTSKNTAYLQMNSLRAEDTAVYYCALRARPPIRLHPRGSVMDYWGQGTLVTVSSGSAASGSSGGSSSGADIQMTQSPSSLSASVGDRVTITCRASQDVSTAVAWYQQKPGKAPKLLIYSASFLYSGVPSRFSGSGSGTDFTLTISSLQPEDFATYYCQQSYTTPPTFGQGTKVEIKGSGSGEVQLVESGGGLVQPGGSLRLSCAASGFNISYSYIHWVRQAPGKGLEWVASIYSSSGSTSYADSVKGRFTISADTSKNTAYLQMNSLRAEDTAVYYCARGAIDYWGQGTLVTVSSGGGGSGGGGSGGGGSDIQMTQSPSSLSASVGDRVTITCRASQSVSSAVAWYQQKPGKAPKLLIYSASSLYSGVPSRFSGSRSGTDFTLTISSLQPEDFATYYCQQWYSSGHVLITFGQGTKVEIKGSGSGHHHHHH
# notes: 1:1 tandem scFv
# B4: F3:5:L2_His (bispecific antibody)
# chain: EVQLVESGGGLVQPGGSLRLSCAASGFNISYSYIHWVRQAPGKGLEWVASIYSSSGSTSYADSVKGRFTISADTSKNTAYLQMNSLRAEDTAVYYCARGAIDYWGQGTLVTVSSGGGGSGGGGSGGGGSDIQMTQSPSSLSASVGDRVTITCRASQSVSSAVAWYQQKPGKAPKLLIYSASSLYSGVPSRFSGSRSGTDFTLTISSLQPEDFATYYCQQWYSSGHVLITFGQGTKVEIKGSGSGEVQLVESGGGLVQPGGSLRLSCAASGFTFTSYYISWVRQAPGKGLEWVAEISPYSGSTYYADSVKGRFTISADTSKNTAYLQMNSLRAEDTAVYYCALRARPPIRLHPRGSVMDYWGQGTLVTVSSGSAASGSSGGSSSGADIQMTQSPSSLSASVGDRVTITCRASQDVSTAVAWYQQKPGKAPKLLIYSASFLYSGVPSRFSGSGSGTDFTLTISSLQPEDFATYYCQQSYTTPPTFGQGTKVEIKGSGSGHHHHHH
# notes: 1:1 tandem scFv
# B5: αGFP:5:L1:Fc (bispecific antibody)
# chain: QVQLVESGGGLVQPGGSLRLSCAASGFTFSRYGMHWVRQAPGKGLEWVSGISSIGSNTYYADSVKGRFTISRDNSKNTLYLQMNSLRAEDTAVYYCARWYKTYIDVWGQGTLVTVSSGGGGSGGGGSGGGGSDIELTQPPSVSVAPGQTARISCSGDNLGKKYVYWYQQKPGQAPVLVIYGDDERPSGIPERFSGSNSGNTATLTISGTQAEDEADYYCASYDSSHILIVFGGGTKLTVLGSGSGDVKLVESGGGLVKLGGSLRLSCAASGFSFSTSYMSWVRQTPEKRLELVAAINLNGGSTYYSDTVKGRFTISRDNAKNTLYLQMSSLKSEDTAFYYCASELAGYGTPFAYWGQGTLVTVSAGSAASGSSGGSSSGADIVLTQSPATLSVTPGDSVSLSCKASQSISYNLHWYQQKSHESPRLLIKYTSQSISGIPSRFSGSGSGTDFTLTINNVETEDFGMYFCQQSNSWPLTFGAGTKLEVKGSGSGDKTHTCPPCPAPEAAGGPSVFLFPPKPKDTLMISRTPEVTCVVVDVSHEDPEVKFNWYVDGVEVHNAKTKPREEQYNSTYRVVSVLTVLHQDWLNGKEYKCKVSNKALGAPIEKTISKAKGQPREPQVYTLPPSREEMTKNQVSLTCLVKGFYPSDIAVEWESNGQPENNYKTTPPVLDSDGSFFLYSKLTVDKSRWQQGNVFSCSVMHEALHNHYTQKSLSLSPGK
# notes: 0FZD:2LRP control
# B6: αGFP:5:L2:Fc (bispecific antibody)
# chain: QVQLVESGGGLVQPGGSLRLSCAASGFTFSRYGMHWVRQAPGKGLEWVSGISSIGSNTYYADSVKGRFTISRDNSKNTLYLQMNSLRAEDTAVYYCARWYKTYIDVWGQGTLVTVSSGGGGSGGGGSGGGGSDIELTQPPSVSVAPGQTARISCSGDNLGKKYVYWYQQKPGQAPVLVIYGDDERPSGIPERFSGSNSGNTATLTISGTQAEDEADYYCASYDSSHILIVFGGGTKLTVLGSGSGEVQLVESGGGLVQPGGSLRLSCAASGFTFTSYYISWVRQAPGKGLEWVAEISPYSGSTYYADSVKGRFTISADTSKNTAYLQMNSLRAEDTAVYYCALRARPPIRLHPRGSVMDYWGQGTLVTVSSGSAASGSSGGSSSGADIQMTQSPSSLSASVGDRVTITCRASQDVSTAVAWYQQKPGKAPKLLIYSASFLYSGVPSRFSGSGSGTDFTLTISSLQPEDFATYYCQQSYTTPPTFGQGTKVEIKGSGSGDKTHTCPPCPAPEAAGGPSVFLFPPKPKDTLMISRTPEVTCVVVDVSHEDPEVKFNWYVDGVEVHNAKTKPREEQYNSTYRVVSVLTVLHQDWLNGKEYKCKVSNKALGAPIEKTISKAKGQPREPQVYTLPPSREEMTKNQVSLTCLVKGFYPSDIAVEWESNGQPENNYKTTPPVLDSDGSFFLYSKLTVDKSRWQQGNVFSCSVMHEALHNHYTQKSLSLSPGK
# notes: 0FZD:2LRP control
# Experiments:
# [1] = molecular target: T1, LRP6E3E4 (UniProt O75581 631-1246); experiment: BLI (Octet), FIG. 12E
# T1 construct: domain: E3E4
# T1 sequence (looked up): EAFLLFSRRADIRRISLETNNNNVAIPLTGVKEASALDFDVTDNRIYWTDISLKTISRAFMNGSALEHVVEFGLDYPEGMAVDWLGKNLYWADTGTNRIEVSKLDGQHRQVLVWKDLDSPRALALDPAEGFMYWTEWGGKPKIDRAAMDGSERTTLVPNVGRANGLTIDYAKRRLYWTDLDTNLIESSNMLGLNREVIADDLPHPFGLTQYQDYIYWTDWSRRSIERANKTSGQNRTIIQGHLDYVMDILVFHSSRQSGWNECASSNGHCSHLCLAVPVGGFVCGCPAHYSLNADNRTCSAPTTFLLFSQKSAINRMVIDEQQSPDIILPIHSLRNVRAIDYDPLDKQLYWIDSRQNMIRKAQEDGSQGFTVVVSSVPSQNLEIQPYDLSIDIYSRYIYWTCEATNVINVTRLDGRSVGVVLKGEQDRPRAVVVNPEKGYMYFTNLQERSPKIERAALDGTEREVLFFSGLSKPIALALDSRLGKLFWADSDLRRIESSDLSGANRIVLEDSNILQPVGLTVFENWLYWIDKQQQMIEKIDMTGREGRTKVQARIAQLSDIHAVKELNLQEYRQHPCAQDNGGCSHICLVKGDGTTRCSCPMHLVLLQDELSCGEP
# [2] = molecular target: T2, LRP6E1E2 (UniProt O75581 20-630); experiment: BLI (Octet), FIG. 12E
# T2 construct: domain: E1E2; also called LRP6 E1E2 domains
# T2 sequence (looked up): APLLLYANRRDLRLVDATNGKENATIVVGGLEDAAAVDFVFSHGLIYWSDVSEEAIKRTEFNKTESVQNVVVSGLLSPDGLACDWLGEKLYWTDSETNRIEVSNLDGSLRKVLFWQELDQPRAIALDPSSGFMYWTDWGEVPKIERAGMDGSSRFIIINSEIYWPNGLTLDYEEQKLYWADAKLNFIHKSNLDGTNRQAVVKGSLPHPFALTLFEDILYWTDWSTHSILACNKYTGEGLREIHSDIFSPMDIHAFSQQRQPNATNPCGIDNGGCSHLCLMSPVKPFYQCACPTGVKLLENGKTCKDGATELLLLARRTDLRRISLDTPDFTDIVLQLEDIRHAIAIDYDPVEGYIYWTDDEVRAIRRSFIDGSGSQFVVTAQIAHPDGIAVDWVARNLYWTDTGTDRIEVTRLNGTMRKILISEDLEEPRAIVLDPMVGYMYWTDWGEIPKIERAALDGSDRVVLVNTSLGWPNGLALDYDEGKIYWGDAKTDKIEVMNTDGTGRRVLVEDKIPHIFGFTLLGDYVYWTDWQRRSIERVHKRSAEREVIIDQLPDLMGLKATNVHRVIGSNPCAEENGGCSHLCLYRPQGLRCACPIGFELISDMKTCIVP
# [3] = molecular target: T3, FZD8 CRD (UniProt Q9H461 30-151); experiment: BLI (Octet), sequential: FZD8 CRD on sensor, tandem scFv, then LRP6 E3E4
# T3 construct: domain: CRD
# T3 sequence (looked up): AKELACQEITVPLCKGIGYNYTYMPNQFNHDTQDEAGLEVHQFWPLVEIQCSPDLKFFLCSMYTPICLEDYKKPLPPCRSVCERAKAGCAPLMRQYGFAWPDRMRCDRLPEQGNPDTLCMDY
# [4] = molecular target: T1, LRP6E3E4; experiment: as above
Binder,binding result [1],binding result [2],binding result [3],binding result [4]
B1,binds,,,
B2,,binds,,
B3,,,binds,binds
B4,,,binds,binds
B5,,binds,,
B6,binds,,,
